Experimental data taken from patent publication US20050282743A1, “Molecular interactions in cells” (Arbor Vita Corporation, priority 2001, published 2005).
Each block holds one binder with its values, some of them ahead of it.

Legend:
Experiment in all cases: G' assay
[1] = biological target: GST-PAR3 PDZ domain 3 (Homo sapiens (Human)), Q8TEW0
[2] = biological target: T1, GST-KIAA1719 PDZ domain 6 (Homo sapiens (Human)), Q9C0E4
T1 chain: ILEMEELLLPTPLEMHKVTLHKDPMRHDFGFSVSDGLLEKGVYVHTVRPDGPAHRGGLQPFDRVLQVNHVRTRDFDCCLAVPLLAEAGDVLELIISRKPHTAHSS

[3] = biological target: T2, GST-PDZK1 PDZ domains 2, 3, 4, Q5T2W1
T2 chain: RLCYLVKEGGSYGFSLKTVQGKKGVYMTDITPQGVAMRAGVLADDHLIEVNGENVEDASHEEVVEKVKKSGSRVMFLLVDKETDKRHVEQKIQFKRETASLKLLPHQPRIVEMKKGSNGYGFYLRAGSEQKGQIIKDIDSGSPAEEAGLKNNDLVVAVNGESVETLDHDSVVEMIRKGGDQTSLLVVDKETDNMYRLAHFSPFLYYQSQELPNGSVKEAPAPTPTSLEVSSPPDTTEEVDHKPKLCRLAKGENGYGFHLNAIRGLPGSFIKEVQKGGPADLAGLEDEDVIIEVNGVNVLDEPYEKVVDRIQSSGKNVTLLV

[4] = biological target: T3, GST-APXL-1 PDZ domain 1 (Homo sapiens (Human)), Q13796
T3 chain: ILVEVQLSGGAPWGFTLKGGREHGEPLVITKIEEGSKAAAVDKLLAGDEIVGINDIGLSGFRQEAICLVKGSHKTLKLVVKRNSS

[5] = biological target: T4, GST-Syntrophin 1 alpha PDZ domain 1 (Homo sapiens (Human)), Q13424
T4 chain: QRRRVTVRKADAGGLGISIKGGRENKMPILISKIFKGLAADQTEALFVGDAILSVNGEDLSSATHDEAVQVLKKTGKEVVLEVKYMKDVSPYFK

[6] = biological target: T5, GST-KIAA0807(S) PDZ domain 1 (Homo sapiens (Human)), Q6P0Q8
T5 chain: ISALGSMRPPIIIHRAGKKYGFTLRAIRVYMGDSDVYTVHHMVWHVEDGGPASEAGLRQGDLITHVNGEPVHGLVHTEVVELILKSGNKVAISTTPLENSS

[7] = biological target: GST-KIAA807 [GST: P08515]
Sequence of GST-KIAA807 [GST: P08515] (P08515 whole entry, the tested form may be a part): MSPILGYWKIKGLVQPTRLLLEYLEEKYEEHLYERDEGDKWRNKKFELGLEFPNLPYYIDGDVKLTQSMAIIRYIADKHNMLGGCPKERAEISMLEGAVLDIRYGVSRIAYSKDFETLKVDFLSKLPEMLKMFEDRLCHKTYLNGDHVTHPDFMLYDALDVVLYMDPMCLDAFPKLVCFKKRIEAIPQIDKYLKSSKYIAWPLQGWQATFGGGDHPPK

[8] = biological target: T6, GST-Shank 1 PDZ domain 1 (Homo sapiens (Human)), Q9UPX8
T6 chain: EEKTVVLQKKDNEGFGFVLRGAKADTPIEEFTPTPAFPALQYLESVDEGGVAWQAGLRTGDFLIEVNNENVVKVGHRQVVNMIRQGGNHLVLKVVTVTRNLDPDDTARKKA

[9] = biological target: T7, GST-AF6 PDZ domain 1 (Homo sapiens (Human)), P55196
T7 chain: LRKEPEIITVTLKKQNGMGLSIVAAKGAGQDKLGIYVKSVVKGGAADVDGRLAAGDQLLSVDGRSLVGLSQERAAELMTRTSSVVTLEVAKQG

[10] = biological target: T8, GST-INADL PDZ domain 3 (Homo sapiens (Human)), Q8NI35
T8 chain: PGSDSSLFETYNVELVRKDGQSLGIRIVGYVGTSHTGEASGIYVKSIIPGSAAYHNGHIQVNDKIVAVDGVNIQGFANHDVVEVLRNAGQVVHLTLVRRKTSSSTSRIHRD

[11] = biological target: T9, GST-PTPL1 PDZ domain 4 (Homo sapiens (Human)), Q12923
T9 chain: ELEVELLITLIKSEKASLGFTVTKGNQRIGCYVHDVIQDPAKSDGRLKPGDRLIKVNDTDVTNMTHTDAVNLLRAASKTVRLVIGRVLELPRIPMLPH

[12] = biological target: T10, GST-MINT1 PDZ domain 2 (Mus musculus (Mouse)), B2RUJ5
T10 chain: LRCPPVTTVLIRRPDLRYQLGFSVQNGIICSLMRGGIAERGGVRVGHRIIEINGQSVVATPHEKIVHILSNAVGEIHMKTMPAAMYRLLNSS

[13] = biological target: T11, GST-MUPP1 PDZ domain 11 (Homo sapiens (Human)), O75970
T11 chain: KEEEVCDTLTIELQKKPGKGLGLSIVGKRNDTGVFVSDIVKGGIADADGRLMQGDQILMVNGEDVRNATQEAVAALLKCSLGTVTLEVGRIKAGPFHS

[14] = biological target: T12, GST-KIAA0382 PDZ domain 1 (Canis lupus familiaris (Dog) (Canis familiaris)), A0A8I3
T12 chain: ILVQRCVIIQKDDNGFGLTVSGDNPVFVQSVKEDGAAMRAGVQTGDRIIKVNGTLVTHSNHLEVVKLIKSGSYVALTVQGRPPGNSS

[15] = biological target: T13, GST-MINT1 PDZ domains 1, 2, Q02410
T13 chain: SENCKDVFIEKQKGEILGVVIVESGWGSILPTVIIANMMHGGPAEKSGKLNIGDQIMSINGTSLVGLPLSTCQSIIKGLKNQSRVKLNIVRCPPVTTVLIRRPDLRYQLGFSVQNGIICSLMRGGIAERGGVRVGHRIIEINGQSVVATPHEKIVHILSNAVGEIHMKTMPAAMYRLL

[16] = biological target: GST-KIAA1634 PDZ domain 1 (Homo sapiens (Human)), Q5TCQ9
Sequence of GST-KIAA1634 PDZ domain 1 (Homo sapiens (Human)), Q5TCQ9 (Q5TCQ9 401-502): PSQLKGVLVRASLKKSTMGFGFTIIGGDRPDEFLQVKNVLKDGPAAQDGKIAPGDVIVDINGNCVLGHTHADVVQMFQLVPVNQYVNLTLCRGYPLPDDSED

[17] = biological target: T14, GST-LIM Mystique PDZ domain 1 (Homo sapiens (Human)), Q96JY6
T14 chain: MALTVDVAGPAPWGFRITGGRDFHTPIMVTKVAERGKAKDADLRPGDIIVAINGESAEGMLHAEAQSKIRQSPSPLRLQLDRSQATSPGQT

[18] = biological target: GST-KIAA0147 PDZ domain 1 (Homo sapiens (Human)), Q14160
Sequence of GST-KIAA0147 PDZ domain 1 (Homo sapiens (Human)), Q14160 (Q14160 other isoform, or with tags, fused parts or gaps): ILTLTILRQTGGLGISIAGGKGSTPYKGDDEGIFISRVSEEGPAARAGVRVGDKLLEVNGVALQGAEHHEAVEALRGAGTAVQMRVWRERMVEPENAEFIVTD

[19] = biological target: GST-KIAA1634 PDZ domain 5 (Homo sapiens (Human)), Q5TCQ9
Sequence of GST-KIAA1634 PDZ domain 5 (Homo sapiens (Human)), Q5TCQ9 (Q5TCQ9 other isoform, or with tags, fused parts or gaps): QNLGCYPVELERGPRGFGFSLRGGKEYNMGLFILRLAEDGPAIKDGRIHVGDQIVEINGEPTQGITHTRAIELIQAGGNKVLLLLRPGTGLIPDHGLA

[20] = biological target: T15, GST-LIM-RIL PDZ domain 1 (Homo sapiens (Human)), P50479
T15 chain: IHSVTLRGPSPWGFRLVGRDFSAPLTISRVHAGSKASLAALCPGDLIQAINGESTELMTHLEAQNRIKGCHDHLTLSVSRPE

[21] = biological target: T16, GST-HEMBA 1003117 PDZ domain 1 (Homo sapiens (Human)), Q96JH8
T16 chain: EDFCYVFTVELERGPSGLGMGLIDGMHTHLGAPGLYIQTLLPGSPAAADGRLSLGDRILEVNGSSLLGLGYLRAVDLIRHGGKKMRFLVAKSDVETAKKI

[22] = biological target: T17, GST-FLJ 10324 PDZ domain 1 [GST: P08515]
T17 chain: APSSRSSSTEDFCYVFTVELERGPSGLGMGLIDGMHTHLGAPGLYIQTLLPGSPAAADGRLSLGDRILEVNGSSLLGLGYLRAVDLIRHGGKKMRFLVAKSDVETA

[23] = biological target: T18, GST-EZRIN Binding Protein 50 PDZ domain 1 (Homo sapiens (Human)), O14745
T18 chain: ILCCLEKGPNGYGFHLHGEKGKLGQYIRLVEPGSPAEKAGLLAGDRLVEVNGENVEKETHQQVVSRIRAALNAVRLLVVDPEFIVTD

[24] = biological target: T19, GST-EZRIN Binding Protein 50 PDZ domain 2 (Homo sapiens (Human)), O14745
T19 chain: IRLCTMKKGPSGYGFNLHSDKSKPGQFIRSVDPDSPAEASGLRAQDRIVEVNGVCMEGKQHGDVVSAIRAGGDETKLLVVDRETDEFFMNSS

[25] = biological target: GST-Atrophin-1 Interacting Protein PDZ domain 5 (Rattus norvegicus (Rat)), O88382
Sequence of GST-Atrophin-1 Interacting Protein PDZ domain 5 (Rattus norvegicus (Rat)), O88382 (O88382 1128-1225): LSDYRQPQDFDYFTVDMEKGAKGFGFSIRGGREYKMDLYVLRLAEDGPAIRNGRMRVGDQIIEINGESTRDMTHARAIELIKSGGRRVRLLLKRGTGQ

[26] = biological target: T20, GST-Shank 3 PDZ domain 1 (human (hypothetical, computer cloned)), Q9BYB0
T20 chain: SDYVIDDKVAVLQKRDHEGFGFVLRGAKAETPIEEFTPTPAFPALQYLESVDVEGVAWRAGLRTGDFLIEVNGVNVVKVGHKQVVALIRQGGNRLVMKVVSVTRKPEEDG

[27] = biological target: GST-BAI-1 Associated Protein PDZ domain 6 (Homo sapiens (Human)), Q96QZ7
Sequence of GST-BAI-1 Associated Protein PDZ domain 6 (Homo sapiens (Human)), Q96QZ7 (Q96QZ7 1143-1233): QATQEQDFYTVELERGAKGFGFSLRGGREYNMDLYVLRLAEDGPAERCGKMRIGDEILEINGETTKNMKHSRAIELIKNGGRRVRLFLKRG
Also: key of the grades not given here.

Sequence of GST-PAR3 PDZ domain 3 (Homo sapiens (Human)), Q8TEW0 (Q8TEW0 579-681): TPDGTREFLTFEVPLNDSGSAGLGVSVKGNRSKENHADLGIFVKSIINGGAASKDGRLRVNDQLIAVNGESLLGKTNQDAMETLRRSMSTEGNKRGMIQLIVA

- Classification [1]: 2 A450 class
- Classification [2]: 1 A450 class
B1: Glycophorin C (peptide)
peptide: QGDPALQDAGDSSRKEYFI
modifications: not checked

- Classification [9]: 1 A450 class
- Classification [10]: 1 A450 class
- Classification [11]: 1 A450 class
B3: JAM (junctional adhesion molecule) (peptide)
peptide: YSQPSARSEGEFKQTSSFLV
modifications: not checked

- Classification [12]: 1 A450 class
- Classification [13]: 1 A450 class
- Classification [14]: 1 A450 class
- Classification [2]: 1 A450 class
B4: ephrin A2 (peptide)
peptide: RIAYSLLGLKDQVNTVGIPI
modifications: not checked

- Classification [9]: 2 A450 class
- Classification [15]: 2 A450 class
- Classification [16]: 1 A450 class
B5: Nectin 2 (peptide)
peptide: SSPDSSYQGKGFVMSRAMYV
modifications: not checked

Second part, the binder before the results:

B2: GABA transporter 3 (peptide)
peptide: DAKLKSDGTIAAITEKETHF
modifications: not checked
- Classification [3]: 1 A450 class
- Classification [4]: 1 A450 class
- Classification [5]: 1 A450 class
- Classification [6]: 1 A450 class
- Classification [7]: 1 A450 class
- Classification [8]: 1 A450 class

B6: DOCK2 (peptide)
peptide: LASKSAEEGKQIPDSLSTDL
modifications: not checked
- Classification [17]: 1 A450 class
- Classification [10]: 1 A450 class
- Classification [18]: 1 A450 class
- Classification [19]: 1 A450 class
- Classification [20]: 1 A450 class
- Classification [21]: 1 A450 class
- Classification [4]: 2 A450 class
- Classification [14]: 1 A450 class
- Classification [22]: 1 A450 class
- Classification [23]: 1 A450 class
- Classification [24]: 2 A450 class
- Classification [25]: 1 A450 class
- Classification [26]: 1 A450 class
- Classification [6]: 4 A450 class
- Classification [7]: 5 A450 class
- Classification [27]: 1 A450 class
- Classification [8]: 1 A450 class
